Sequences and labels used below:
B1: Gal4AD-Spo11 [S. cerevisiae] / LexA-Rec102 [S. cerevisiae] (parent)
chain 1: MALEGLRKKYKTRQELVKALTPKRRSIHLNSNGHSNGTPCSNADVLAHIKHFLSLAANSLEQHQQPISIVFQNKKKKGDTSSPDIHTTLDFPLNGPHLCTHQFKLKRCAILLNLLKVVMEKLPLGKNTTVRDIFYSNVELFQRQANVVQWLDVIRFNFKLSPRKSLNIIPAQKGLVYSPFPIDIYDNILTCENEPKMQKQTIFPGKPCLIPFFQDDAVIKLGTTSMCNIVIVEKEAVFTKLVNNYHKLSTNTMLITGKGFPDFLTRLFLKKLEQYCSKLISDCSIFTDADPYGISIALNYTHSNERNAYICTMANYKGIRITQVLAQNNEVHNKSIQLLSLNQRDYSLAKNLIASLTANSWDIATSPLKNVIIECQREIFFQKKAEMNEIDARIFEYK
chain 2: MARDITFLTVFLESCGAVNNDEAGKLLSAWTSTVRIEGPESTDSNSLYIPLLPPGMLKIKLNFKMNDRLVTEEQELFTKLREIVGSSIRFWEEQLFYQVQDVSTIENHVILSLKCTILTDAQISTFISKPRELHTHAKGYPEIYYLSELSTTVNFFSKEGNYVEISQVIPHFNEYFSSLIVSQLEFEYPMVFSMISRLRLKWQQSSLAPISYALTSNSVLLPIMLNMIAQDKSSTTAYQILCRRRGPPIQNFQIFSLPAVTYNK

In article PMC11746154 one finds response (normalized β-gal units) data, which are given here for nine variants.

The test covers variants of B1. Description: Y2H quantitative β-galactosidase assay. As to conditions: with LexA-Rec102 [S. cerevisiae]; parent: 1; read off a plot.
On to chain 1 V17A, for which the response (normalized β-gal units) turned out to be 0.5. Next, chain 1 L105A: 0.05; chain 1 L93A: 0.15. Next, chain 1 L112A: 0.03; chain 1 L60A: 0.62; chain 1 L16A: 0.3. On to chain 1 Q102A, for which the response (normalized β-gal units) was 1.2. chain 1 N94A: the response (normalized β-gal units) worked out at 0.07. Next, chain 1 L20A: 0.35.
